Source: US9243044B2, “Anticoagulant polypeptide and applications thereof” (GUANGDONG MEDICAL COLLEGE, priority 2011, dated 2016)

T1: human fXIIa (Homo sapiens, UniProt P00748)
T1 construct: Human coagulation factors IIa (thrombin), Xa, XIa, XIIa, EGR-fXa; purchased Haematologic Technologies Inc (United States)
T1 sequence (P00748 373-615 limits assumed): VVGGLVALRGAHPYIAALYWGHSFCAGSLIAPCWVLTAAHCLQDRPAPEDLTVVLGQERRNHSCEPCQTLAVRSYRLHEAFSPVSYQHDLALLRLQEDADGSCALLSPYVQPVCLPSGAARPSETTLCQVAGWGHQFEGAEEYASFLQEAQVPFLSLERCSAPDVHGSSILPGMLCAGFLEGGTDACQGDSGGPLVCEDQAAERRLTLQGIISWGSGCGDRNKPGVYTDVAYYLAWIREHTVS
T1 sequence (P00748 20-372 limits assumed): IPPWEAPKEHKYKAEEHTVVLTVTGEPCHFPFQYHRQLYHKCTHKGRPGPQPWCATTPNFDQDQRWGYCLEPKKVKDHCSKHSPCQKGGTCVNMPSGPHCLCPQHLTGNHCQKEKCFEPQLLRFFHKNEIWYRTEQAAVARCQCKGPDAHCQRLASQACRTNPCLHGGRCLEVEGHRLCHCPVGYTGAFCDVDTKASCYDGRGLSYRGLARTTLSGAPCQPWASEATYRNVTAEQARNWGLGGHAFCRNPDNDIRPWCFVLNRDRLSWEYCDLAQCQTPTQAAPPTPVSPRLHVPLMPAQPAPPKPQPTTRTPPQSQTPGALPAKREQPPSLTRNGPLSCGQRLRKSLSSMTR

B1: NAPTin-2 (protein)
chain: NPSCGENERHDECSRKECDPKCKYDGTEEKDDEKPVVCLTRVCYGDCICRDGFLRNKNGACVKAEDCELDN
modifications: Sequence derived from Ancylostoma caninum or Synthetic
B2: NAPTin-4 (protein)
chain: NPSCGENERHDECSRKECDPKCKYDGTEEKDDEKPVVCLTRVCYGDCICRDGFLRNKNGACVKAEDCELDNME
modifications: Sequence derived from Ancylostoma caninum or Synthetic
B3: NAPTin-6 (protein)
chain: NPSCGENERHDECSRKECDPKCKYDGTEEKDDEKPVVCLTRVCYGDCICRDGFLRNKNGACVKAEDCE
modifications: Sequence derived from Ancylostoma caninum or Synthetic

Each molecule was assayed against T2, human fXa (Homo sapiens, UniProt P00742) (assay: Chromogenic assay, fXa). Conditions: 100 nM.
T2 construct: Human coagulation factors IIa (thrombin), Xa, XIa, XIIa, EGR-fXa; purchased Haematologic Technologies Inc (United States)
T2 sequence (P00742 41-179 limits assumed): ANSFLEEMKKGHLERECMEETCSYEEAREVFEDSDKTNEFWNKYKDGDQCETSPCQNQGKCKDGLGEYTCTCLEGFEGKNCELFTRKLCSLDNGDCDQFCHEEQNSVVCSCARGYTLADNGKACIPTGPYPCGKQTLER
T2 sequence (P00742 235-488 limits assumed): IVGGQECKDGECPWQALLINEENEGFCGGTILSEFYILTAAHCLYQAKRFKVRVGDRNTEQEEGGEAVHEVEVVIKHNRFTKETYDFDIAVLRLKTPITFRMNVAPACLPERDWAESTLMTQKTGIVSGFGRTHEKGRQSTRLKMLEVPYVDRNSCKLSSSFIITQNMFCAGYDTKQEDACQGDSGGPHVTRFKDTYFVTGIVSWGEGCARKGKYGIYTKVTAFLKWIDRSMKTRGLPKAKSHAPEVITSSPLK
Format: biochemical
Excerpt: (§1) The recombinant anticoagulant polypeptides in the present invention were expressed in E. coli and purified in our laboratory, of which the activities against coagulation factors were investigated by chromogenic assays. Human coagulation factors IIa (thrombin), Xa, XIa, XIIa, EGR-fXa were products of Haematologic Technologies Inc (United States). Recombinant fVIIa was products of Novo-Nordisk (Denmark). Recombinant soluble tissue factor (sTF) was purchased from Protgen (Beijing, China). The following chromogenic substrates were used for these coagulation factor assays: S2765 for human fXa, S2288 for human fVIIa and fIIa, 52366 for human fXIa and fXIIa, respectively.
(§2) The chromogenic assays were carried out in a total reaction volume of 100 μl in individual wells of a 96-well microtiter plate. 50 μl fIIa, fXa, fXIa, or fXIIa (final concentration: 1 nM) was incubated with 10 μl recombinant anticoagulant polypeptide at various concentrations (or PBS control group) Assays for the detection activity of fVIIa: 50 μl fVIIa+TF (1 μM) and EGR-fXa (final concentration 500 nM) was incubated for 15 mins at 25° C., respectively. After the addition of 40 μl of prewarmed chromogenic substrate to a final concentration of 400 μM, the changes of absorbance at 405 nm were monitored by using an E1x808 kinetic microtiter reader. The data were used to calculate the velocities of response.
In the case of B1, the “effect on fXa activity (in words)” value is reported as “without affecting”.
With B2 the “effect on fXa activity (in words)” value was “without affecting”.
B3 was tested, and the “effect on fXa activity (in words)” value was “without affecting”.

Same assay, conditions: 200 nM
For B1, the “effect on fXa activity (in words)” value was “without affecting”.
B2 was tested, and the “effect on fXa activity (in words)” value was “without affecting”.
B3 was tested, and the “effect on fXa activity (in words)” value was “without affecting”.

These molecules were tested against T3, human fIIa (thrombin) (Homo sapiens, UniProt P00734) (assay: Chromogenic assay, fIIa (thrombin)). Conditions: 100 nM.
T3 construct: Human coagulation factors IIa (thrombin), Xa, XIa, XIIa, EGR-fXa; purchased Haematologic Technologies Inc (United States)
Format: biochemical
Excerpt: as §1, §2
With B1 the “effect on fIIa activity (in words)” value was “without affecting”.
With B2 the “effect on fIIa activity (in words)” value was “without affecting”.
With B3 the “effect on fIIa activity (in words)” value was “without affecting”.

Same assay, conditions: 200 nM
B1 was tested, and the “effect on fIIa activity (in words)” value was “without affecting”.
For B2, the “effect on fIIa activity (in words)” value was “without affecting”.
In the case of B3, the “effect on fIIa activity (in words)” value is reported as “without affecting”.

Each molecule was assayed on normal human plasma (assay: aPTT assay in normal human plasma). Conditions: 100 nM and 500 nM.
Format: biochemical
Method: (§3) The recombinant anticoagulant polypeptides were expressed in Escherichia coli and purified in our laboratory. Anticoagulant activity was determined by measuring the aPTT and PT.
For the aPTT assay, 10 μl recombinant protein at various concentrations was mixed with 50 μl fresh normal human plasma, 20 μl aPTT reagent (MDC Hemostasis, Germany) and incubated for 15 mins at 37° C. 20 μl 0.05 mol/L prewarmed CaCl2 was then added to initiate the clotting reaction. The clotting time was measured with the absorbance at 630 nm by using an E1x808 kinetic microtiter reader (BioTek, United States). Each concentration was repeated 3 times. The ratio of the mean aPTT value of each concentration to blank control group is multiples of prolonging the aPTT.
For B1, the “prolongation of aPTT (in words)” value was “significantly prolong aPTT”.
With B2 the “prolongation of aPTT (in words)” value was “significantly prolong aPTT”.
With B3 the “prolongation of aPTT (in words)” value was “significantly prolong aPTT”.

Same assay, conditions: 100 nM, normal human plasma
With B1 the “aPTT” value was 80.2 ± 5.1 s.
With B2 the “aPTT” value was 78.7 ± 3.7 s.
In the case of B3, the “aPTT” value is reported as 79.5 ± 3.1 s.

Same assay, conditions: 100 nM; ratio of mean aPTT to blank control
In the case of B1, the “multiples of prolonging aPTT” value is reported as 2.0.
B2 was tested, and the “multiples of prolonging aPTT” value was 1.96.
For B3, the “multiples of prolonging aPTT” value was 1.98.

Same assay, conditions: 500 nM, normal human plasma
B1 was tested, and the “aPTT” value was 221.8 ± 6.3 s.
For B2, the “aPTT” value was 233.3 ± 4.5 s.
For B3, the “aPTT” value was 215.4 ± 5.6 s.

Same assay, conditions: 500 nM; ratio of mean aPTT to blank control
For B1, the “multiples of prolonging aPTT” value was 5.53.
With B2 the “multiples of prolonging aPTT” value was 5.82.
With B3 the “multiples of prolonging aPTT” value was 5.37.

The molecules below were run against T4, human fXIa (Homo sapiens, UniProt P03951) (assay: Chromogenic assay, fXIa). Conditions: 100 nM.
T4 construct: Human coagulation factors IIa (thrombin), Xa, XIa, XIIa, EGR-fXa; purchased Haematologic Technologies Inc (United States)
T4 sequence (P03951 19-387 limits assumed): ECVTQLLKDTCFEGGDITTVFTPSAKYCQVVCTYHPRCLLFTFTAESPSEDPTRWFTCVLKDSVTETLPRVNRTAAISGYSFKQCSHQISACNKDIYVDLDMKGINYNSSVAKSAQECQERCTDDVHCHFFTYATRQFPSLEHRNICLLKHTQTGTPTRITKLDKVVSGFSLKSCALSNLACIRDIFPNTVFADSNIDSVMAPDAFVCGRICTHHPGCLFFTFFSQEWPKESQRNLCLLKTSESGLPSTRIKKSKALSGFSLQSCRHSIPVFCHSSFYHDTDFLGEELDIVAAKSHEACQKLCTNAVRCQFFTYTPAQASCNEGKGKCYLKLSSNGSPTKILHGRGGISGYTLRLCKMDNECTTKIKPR
T4 sequence (P03951 388-625 limits assumed): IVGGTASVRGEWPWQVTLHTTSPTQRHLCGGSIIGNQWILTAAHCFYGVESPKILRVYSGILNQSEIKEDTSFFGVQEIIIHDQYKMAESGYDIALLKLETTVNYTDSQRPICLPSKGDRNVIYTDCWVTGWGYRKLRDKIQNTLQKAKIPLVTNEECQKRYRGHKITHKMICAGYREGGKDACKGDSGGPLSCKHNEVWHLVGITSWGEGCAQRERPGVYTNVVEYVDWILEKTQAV
Format: biochemical
Excerpt: as §1, §2
For B1, the “inhibition of the activity of fXIa” value was “more than 90%”.
B2 was tested, and the “inhibition of the activity of fXIa” value was “more than 90%”.
In the case of B3, the “inhibition of the activity of fXIa” value is reported as “more than 90%”.

Same assay, conditions: 200 nM
With B1 the “inhibition of the activity of fXIa (in words)” value (from here on “inhibition … (in words)”) was “almost completely inhibited”.
In the case of B2, the “inhibition … (in words)” value is reported as “almost completely inhibited”.
With B3 the “inhibition … (in words)” value was “almost completely inhibited”.

These molecules were tested against T1, human fXIIa (assay: Chromogenic assay, fXIIa). Conditions: 100 nM.
Format: biochemical
Excerpt: as §1, §2
With B1 the “effect on fXIIa activity (in words)” value was “without affecting”.
B2 was tested, and the “effect on fXIIa activity (in words)” value was “without affecting”.
For B3, the “effect on fXIIa activity (in words)” value was “without affecting”.

Same assay, conditions: 200 nM
With B1 the “effect on fXIIa activity (in words)” value was “without affecting”.
B2 was tested, and the “effect on fXIIa activity (in words)” value was “without affecting”.
With B3 the “effect on fXIIa activity (in words)” value was “without affecting”.

The molecules below were run on normal human plasma (assay: PT assay in normal human plasma). Conditions: 100 nM and 500 nM.
Format: biochemical
Method: as §3
For the PT assay, 10 μl recombinant protein at various concentration was mixed with 45 μl normal human plasma and incubated for 15 mins at 37° C. 45 μl prewarmed PT reagent (MDC Hemostasis, Germany) was then added and the clotting time was measured with the absorbance at 630 nm by using an E1x808 kinetic microtiter reader (BioTek, United States). Each concentration was repeated 3 times.
B1 was tested, and the “prolongation of PT (in words)” value was “couldn't prolong PT”.
B2 was tested, and the “prolongation of PT (in words)” value was “couldn't prolong PT”.
For B3, the “prolongation of PT (in words)” value was “couldn't prolong PT”.

Same assay, conditions: 100 nM, normal human plasma
In the case of B1, the “PT” value is reported as 11.7 ± 1.1 s.
For B2, the “PT” value was 12.4 ± 0.9 s.
B3 was tested, and the “PT” value was 12.4 ± 0.9 s.

Same assay, conditions: 500 nM, normal human plasma
With B1 the “PT” value was 12.6 ± 0.5 s.
B2 was tested, and the “PT” value was 11.6 ± 0.3 s.
In the case of B3, the “PT” value is reported as 12.6 ± 0.4 s.

What follows are molecules tested against T5, fVIIa/TF (Homo sapiens, UniProt P08709) (assay: Chromogenic assay, fVIIa/TF). Conditions: 100 nM.
T5 construct: Recombinant fVIIa was products of Novo-Nordisk (Denmark); purchased Novo-Nordisk (Denmark) for fVIIa; Protgen (Beijing, China) for sTF; Haematologic Technologies Inc for EGR-fXa
T5 sequence (P08709 61-212 limits assumed): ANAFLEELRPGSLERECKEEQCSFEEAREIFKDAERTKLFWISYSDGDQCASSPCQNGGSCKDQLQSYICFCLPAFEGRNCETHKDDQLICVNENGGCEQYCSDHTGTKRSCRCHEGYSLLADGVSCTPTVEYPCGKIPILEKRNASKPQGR
T5 sequence (P08709 213-466 limits assumed): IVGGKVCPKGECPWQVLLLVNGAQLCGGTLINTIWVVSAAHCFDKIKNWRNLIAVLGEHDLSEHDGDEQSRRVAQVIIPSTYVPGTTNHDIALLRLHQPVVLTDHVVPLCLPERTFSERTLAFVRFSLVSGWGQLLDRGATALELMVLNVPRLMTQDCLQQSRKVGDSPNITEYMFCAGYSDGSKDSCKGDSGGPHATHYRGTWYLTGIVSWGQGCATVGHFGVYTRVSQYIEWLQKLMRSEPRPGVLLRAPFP
T5 sequence (P13726 33-251 partner limits assumed): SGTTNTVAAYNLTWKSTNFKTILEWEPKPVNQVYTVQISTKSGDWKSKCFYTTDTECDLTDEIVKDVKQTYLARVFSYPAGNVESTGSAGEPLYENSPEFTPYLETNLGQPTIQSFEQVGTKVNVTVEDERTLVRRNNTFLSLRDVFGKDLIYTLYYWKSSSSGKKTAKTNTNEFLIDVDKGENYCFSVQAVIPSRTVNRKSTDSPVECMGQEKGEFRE
Format: biochemical
Excerpt: as §1, §2
In the case of B1, the “effect on fVIIa/TF activity (in words)” value is reported as “without affecting”.
B2 was tested, and the “effect on fVIIa/TF activity (in words)” value was “without affecting”.
With B3 the “effect on fVIIa/TF activity (in words)” value was “without affecting”.

Same assay, conditions: 200 nM
With B1 the “effect on fVIIa/TF activity (in words)” value was “without affecting”.
For B2, the “effect on fVIIa/TF activity (in words)” value was “without affecting”.
B3 was tested, and the “effect on fVIIa/TF activity (in words)” value was “without affecting”.
